Measured values published in publication doi:10.1101/2024.03.13.584817 (bioRxiv, 2024).

What was measured:
[1] = molecular target: T1, dROS1 ECR construct 1-4 (126-1298), His-tagged (Drosophila, UniProt P13368 126-1298); test: SPR
T1 sequence (looked up): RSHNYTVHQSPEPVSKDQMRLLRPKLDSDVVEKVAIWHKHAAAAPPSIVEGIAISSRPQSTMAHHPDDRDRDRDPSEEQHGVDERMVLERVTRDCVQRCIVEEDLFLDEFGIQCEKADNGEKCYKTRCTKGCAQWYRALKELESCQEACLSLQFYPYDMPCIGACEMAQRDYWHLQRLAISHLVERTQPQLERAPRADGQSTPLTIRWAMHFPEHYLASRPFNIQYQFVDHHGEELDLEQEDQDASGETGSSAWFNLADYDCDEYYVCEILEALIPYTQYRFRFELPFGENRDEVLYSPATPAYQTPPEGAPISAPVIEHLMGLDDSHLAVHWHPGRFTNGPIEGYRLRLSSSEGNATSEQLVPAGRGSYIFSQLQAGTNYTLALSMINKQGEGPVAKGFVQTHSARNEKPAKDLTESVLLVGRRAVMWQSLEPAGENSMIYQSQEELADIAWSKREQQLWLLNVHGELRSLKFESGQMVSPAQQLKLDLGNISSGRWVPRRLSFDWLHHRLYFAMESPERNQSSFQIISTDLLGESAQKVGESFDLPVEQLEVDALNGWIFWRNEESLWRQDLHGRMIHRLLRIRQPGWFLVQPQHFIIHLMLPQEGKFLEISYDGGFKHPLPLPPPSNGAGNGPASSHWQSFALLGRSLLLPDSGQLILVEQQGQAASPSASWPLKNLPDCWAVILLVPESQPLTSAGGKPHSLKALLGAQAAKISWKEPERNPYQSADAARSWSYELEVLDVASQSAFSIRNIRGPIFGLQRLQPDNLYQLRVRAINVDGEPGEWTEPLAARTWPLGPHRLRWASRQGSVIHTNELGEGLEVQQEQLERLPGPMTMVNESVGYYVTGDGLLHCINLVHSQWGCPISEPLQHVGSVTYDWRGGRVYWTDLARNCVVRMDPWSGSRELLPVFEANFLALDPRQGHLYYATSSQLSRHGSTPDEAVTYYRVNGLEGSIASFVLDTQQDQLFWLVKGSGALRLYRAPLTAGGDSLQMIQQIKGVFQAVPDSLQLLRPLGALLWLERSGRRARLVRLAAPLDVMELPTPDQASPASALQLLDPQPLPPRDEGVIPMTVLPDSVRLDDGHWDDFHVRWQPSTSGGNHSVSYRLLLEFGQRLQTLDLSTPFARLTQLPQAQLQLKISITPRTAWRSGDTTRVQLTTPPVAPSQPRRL

[2] = molecular target: dROS1 ECR construct 1-9 (126-2113) (Drosophila, UniProt P13368 126-2113); test: SPR

B1: BOSS ECR (102-510), His-tag cleaved (domain or fragment, Drosophila, UniProt P22815 102-510, looked up)
chain: GTTASLVPEICLNGLQLTVNSADEGTVIRKQEEFVKILEGDVVLSVLTKDPDSALFVINRVNQANLIMADFEIGIRAISIDNASLAENLLIQEVQFLQQCTTYSMGIFVDWELYKQLESVIKDLEYNIWPIPGTRAHLFPKVAHLLHQMPWGEKIASVEIATETLEMYNEFMEAARQEHMCLMHFKSDDNVYIMFGNKLASHFKENGTLFSVPTDRTDDEFLADLPNRAFVLMENEIDLSTAVELDATPTALDEILIGKSVLPSRVLSFAGSIIDLMNWLRGSLSKHCKRGEEHDLYVLESCFNFLNFIEDWRTSEYRQAHDTAEILSLLLMRKLGTAMNFQMYQKKVLTLDKITGESRTELREIASQNFVTNVTTYYHYNRDNHTSLELKTKFGQVFNCQYSAGDNRR
B1 gave a Kd [1] of 3 to 5 µM and a Kd [2] of 4.4 µM.
